One molecule from publication PMC11731451, “Phosphorylation of Lamin A/C regulates the structural integrity of the nuclear envelope” (The Journal of Biological Chemistry, 2024) can be followed below.

The target of this assay is T1, GST-tagged Lamin A-C178 (250-428 aa), wild type (UniProt P02545 250-428).
T1 construct: Lamin A, fragment C178, residues 250-428; also called Lamin-A-C178-WT
T1 sequence (looked up): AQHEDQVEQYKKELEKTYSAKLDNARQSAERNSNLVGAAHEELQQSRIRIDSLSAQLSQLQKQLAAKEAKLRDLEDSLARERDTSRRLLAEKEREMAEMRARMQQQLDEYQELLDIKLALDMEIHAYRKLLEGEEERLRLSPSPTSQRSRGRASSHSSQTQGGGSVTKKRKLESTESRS
Put plainly: pull-down; 10 ug GST-tagged protein on glutathione agarose beads incubated with 10 ug soluble recombinant protein; PBS with 0.1% Triton X-100, 4 C, 4 h; three washes; SDS-PAGE with Coomassie staining; salt concentration also varied (Fig. S4B). As to conditions: both partners purified.

B1: His-tagged Lamin A-N125 (1-125 aa), wild type (domain or fragment, UniProt P02545 1-125, looked up)
chain: METPSQRRATRSGAQASSTPLSPTRITRLQEKEDLQELNDRLAVYIDRVRSLETENAGLRLRITESEEVVSREVSGIKAAYEAELGDARKTLDSVAKERARLQLELSKVREEFKELKARNTKKEG
notes: The cell work is in human HeLa cells; also called Lamin A-N125-WT; source: E. coli BL21, purified (Ni-NTA agarose, dialysed)
With B1, the binding result was “binds”.
